Read-outs that look alike come from different tables or passages of the source.
What was measured:
Test in all cases: FP
[1] = biological target: P7, fluorescein-labelled proline-rich peptide from the SOS1 proline-rich domain (human) (UniProt Q07889)
[2] = biological target: RP2, fluorescein-labelled reference peptide from the N-terminal extension of the RHO GTPase WRCH1/RHOU (human) (UniProt Q7L0Q8)
[3] = biological target: P2, fluorescein-labelled proline-rich peptide from the SOS1 proline-rich domain (human) (UniProt Q07889)
[4] = biological target: P3, fluorescein-labelled proline-rich peptide from the SOS1 proline-rich domain (human) (UniProt Q07889)
[5] = biological target: P1, fluorescein-labelled proline-rich peptide from the SOS1 proline-rich domain (human) (UniProt Q07889)
[6] = biological target: P4, fluorescein-labelled proline-rich peptide from the SOS1 proline-rich domain (human) (UniProt Q07889)
[7] = biological target: RP1, fluorescein-labelled reference peptide, a SOS1 derivative encompassing part of P3 (human) (UniProt Q07889)
[8] = biological target: P5, fluorescein-labelled proline-rich peptide from the SOS1 proline-rich domain (human) (UniProt Q07889)

Sequence of RP2, fluorescein-labelled reference peptide from the N-terminal extension of the RHO GTPase WRCH1/RHOU (human) (Q7L0Q8 whole entry, looked up, the tested form may be a part): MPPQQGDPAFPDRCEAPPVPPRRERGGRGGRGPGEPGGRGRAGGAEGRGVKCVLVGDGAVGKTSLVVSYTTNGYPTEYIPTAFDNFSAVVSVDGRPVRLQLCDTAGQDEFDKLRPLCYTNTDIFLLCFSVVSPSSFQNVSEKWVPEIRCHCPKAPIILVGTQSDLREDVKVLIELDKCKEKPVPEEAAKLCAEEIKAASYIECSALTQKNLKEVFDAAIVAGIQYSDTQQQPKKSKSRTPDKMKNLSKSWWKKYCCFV
Sequence of CRK-1 SH3 domain, GST cleaved (P46108 127-301): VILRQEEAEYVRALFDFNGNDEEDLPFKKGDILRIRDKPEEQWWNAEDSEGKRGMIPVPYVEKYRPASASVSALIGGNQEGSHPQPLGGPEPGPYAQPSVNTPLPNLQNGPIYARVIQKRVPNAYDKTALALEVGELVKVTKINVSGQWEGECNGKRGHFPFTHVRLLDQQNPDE

Row | Substance | Kd [1] [µM] | Kd [2] [µM] | Kd [4] [µM] | Kd [6] [µM] | Kd [7] [µM] | also measured
1 | SORBS1-1 | 13.2 |  |  |  |  | 
2 | SH3PXD2A-1 |  | 21 | 18 |  |  | Kd [3]: 44 µM
3 | ITSN1-5 |  | 23 |  | 12 |  | Kd [5]: 23 µM
4 | CRK-1 SH3 domain, GST cleaved (from UniProt P46108) |  |  |  |  |  | Kd ([1]; domain or fragment): 18.1 µM; Kd ([4]; domain or fragment): 12.9 µM
5 | RIMBP3B-1 | 15 |  |  |  |  | Kd [3]: 21 µM

The next lines start with results.

Row | Kd [1] [µM] | Kd [2] [µM] | Kd [4] [µM] | Kd [6] [µM] | Kd [7] [µM] | Substance | also measured
6 | 13.3 |  | 2 |  |  | SRC | 
7 |  | 11 |  | 6.6 | 39 | ITSN1-1 | 
8 |  |  | 15 | 60 | 11 | GRB2-1 | Kd [8]: 62 µM
9 |  |  | 12 | 20 | 3.4 | GRB2-2 | Kd [8]: 35 µM
